Data from patent US20240058465A1 (SUTRO BIOPHARMA, published 2024).
Where a chain is given by its changes, count along the chain named. One block for each binder: values may come before it.

Assays:
human ROR1 (hROR1) = target: T1, human ROR1 (hROR1) (human, UniProt Q01973 30-937); experiment: flow cytometry, HCT116-hROR1 cells
T1 construct: On HCT116-hROR1 transfectants, Mino cells or Ntera-2 cells, as the assay of each row says; also called receptor tyrosine kinase like orphan receptor 1
Protocol: A mix of ROR1 positive and negative cells was prepared as follows. Ror1 negative cells were washed 2× in PBS then incubated in PBS containing 1 nM CellTrace™ Oregon Green488® (Life Technologies) at 37° C. for 30 minutes. Cells were then washed 2× with RPMI w/10% fetal calf serum (or FCS), washed 2× with FACS buffer (PBS+0.5% BSA), suspended thoroughly in ice-cold FACS buffer at a final concentration of 4×10^6 cells/ml and kept on ice. ROR1 positive cells were washed 2× in PBS and suspended with ice-cold FACS buffer at 4×10^6 cells/ml. ROR1 positive and negative cells were then mixed to obtain a 1-1 cell suspension and seeded at 50 μl per well on 96 well polypropylene plates. 50 μl of 6-12 point dilutions of anti-ROR1 variants starting from concentrations of ˜100-200 nM antibody was dispensed using BioMekFX (Beckman Coulter) into each well. Cells were then incubated on ice for 1 hr, washed with FACS buffer and incubated for 1 hr on ice with 50 μl FACS buffer containing 2.5 μg/ml Alexa647-conjugated Goat Anti-Human IgG dispensed using BioMekFX (Beckman Coulter). Cells were then washed 2× with FACS buffer and fixed for 10 minutes in 200 μl PBS with 2% PFA prior to fluorescence detection. Samples were acquired using a Beckton Dickinson LSRII FACS. Mean Fluorescence Intensity of ROR1 antibody binding was analyzed using FlowJo® software (Tree Star, Inc.).

[1] = target: T2, human ROR1 Frizzled domain (hROR1-Fz) (human, UniProt Q01973 165-305); experiment: SPR Biacore, IgG on anti-Fc, ROR1-Fz analyte
T2 construct: Acro Biosystems, made in HEK293
Protocol: Anti-Fc polyclonal antibodies were immobilized onto a CMS chip (GE Life Sciences) using amine coupling chemistry (from Amine Coupling Kit, GE Life Sciences). The immobilization steps were carried out at a flow rate of 25 μL/min in 1×HBS-EP+buffer (GE Life Sciences; 10× Stock diluted before use). The sensor surfaces were activated for 7 min with a mixture of NHS (0.05 M) and EDC (0.2 M). The Anti-Fc antibodies were injected over all 4 flow cells at a concentration of 25 ug/ml in 10 mM sodium acetate, pH 4.5, for 7 min. Ethanolamine (1 M, pH 8.5) was injected for 7 min to block any remaining activated groups.
Off-rate and kinetic binding experiments were performed at 25° C. using 1×HBS-EP+buffer. Test and control antibodies were injected over the anti-Fc surface at concentrations of 5-10 μg/mL for 12 seconds at a flow rate of 10 μL/min on flow cells 2, 3 and 4, followed by a buffer wash for 30 seconds at the same flow rate. […] After capturing ligand (antibody) on the anti-Fc surface, the analyte (hROR1, Fz or Kr domains, Acro Biosystems, Delaware) was bound for 180 seconds, followed by a 600 second dissociation phase at a flow rate of 50 μL/min. Between each ligand capture and analyte binding cycle, regeneration was carried out using 2 injections of 10 mM Glycine pH 2.0 for 30 seconds at 30 μL/min, followed by a 30 second buffer wash step.

B1: SRP2194-B04 (antibody, IgG1, V domains shown)
VH: EVQLVESGGGLVQPGGSLRLSCAASGFNITGYHIHWVRQAPGKGLEWVGYISPLAGNTYHADSVKGRFTISADTSKNTAYLQMNSLRAEDTAVYYCTRDSRRYVRPLDYWGQGTLVTVSS
VL: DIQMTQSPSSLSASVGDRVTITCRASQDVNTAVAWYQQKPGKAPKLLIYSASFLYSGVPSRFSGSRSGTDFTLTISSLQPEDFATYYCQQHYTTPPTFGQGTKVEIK
notes: His/FLAG-tagged IgG1, cell-free; also called Antibody 129
Bmax (MFI) (human ROR1 (hROR1)): 9300 MFI
Kd (human ROR1 (hROR1)): 0.2 nM
Kd [1]: 1.44 nM
koff [1]: 0.000392 s⁻¹
kon [1]: 271000 M⁻¹ s⁻¹

B2: SRP2194-A02 (antibody, IgG1, V domains shown)
VH: B1 VH with H33Y, T97A, L107F
VL: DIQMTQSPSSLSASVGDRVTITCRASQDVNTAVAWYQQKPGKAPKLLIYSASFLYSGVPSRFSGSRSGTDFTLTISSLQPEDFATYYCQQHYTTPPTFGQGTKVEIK
notes: His/FLAG-tagged IgG1, cell-free
Bmax (MFI) (human ROR1 (hROR1)): 9220 MFI
Kd (human ROR1 (hROR1)): 0.14 nM
Kd [1]: 1.39 nM
koff [1]: 0.000429 s⁻¹
kon [1]: 308000 M⁻¹ s⁻¹

B3: SRP2196-B08 (antibody, V domains shown)
VH: B1 VH with H33Y, Y50Q, L54N, A55S, N57Y, H60L, T97A, P106G, L107W
VL: QAVVTQESALTTSPGETVTLTCRSSTGAVTTSNYANWVQEKPDHLFTGLIGGTNKRAPGVPARFSGSLIGDKAALTITGAQTEDEAIYFCALWYSNLWVFGGGTKLTVL
notes: His/FLAG-tagged IgG1
Bmax (MFI) (human ROR1 (hROR1)): 14400 MFI
Kd (human ROR1 (hROR1)): 0.2 nM
Kd [1]: 3.13 nM
koff [1]: 0.000488 s⁻¹
kon [1]: 156000 M⁻¹ s⁻¹

B4: SRP2196-A10 (antibody, V domains shown)
VH: EVQLVESGGGLVQPGGSLRLSCAASGFNITGYYIHWVRQAPGKGLEWVGYISPNSGATHYADSVKGRFTISADISKNTAYLQMNSLRAEDTAVHYCARDSRRYVRSWDYWGQGTLVTVSS
VL: B3 VL
notes: His/FLAG-tagged IgG1
Bmax (MFI) (human ROR1 (hROR1)): 14400 MFI
Kd (human ROR1 (hROR1)): 0.3 nM
Kd [1]: 2.78 nM
koff [1]: 0.000479 s⁻¹
kon [1]: 172000 M⁻¹ s⁻¹

B5: SRP2196-B01 (antibody, V domains shown)
VH: B4 VH with Y50Q, A57Y, H59Y, I74T, A79T, H94Y
VL: B3 VL
notes: His/FLAG-tagged IgG1
Bmax (MFI) (human ROR1 (hROR1)): 15300 MFI
Kd (human ROR1 (hROR1)): 0.3 nM
Kd [1]: 3.06 nM
koff [1]: 0.000401 s⁻¹
kon [1]: 131000 M⁻¹ s⁻¹

B6: SRP2196-A06 (antibody, V domains shown)
VH: B4 VH with Y50Q, A57S, Y60Q, I74T, E89G, H94Y, S106G
VL: B3 VL
notes: His/FLAG-tagged IgG1
Bmax (MFI) (human ROR1 (hROR1)): 14600 MFI
Kd (human ROR1 (hROR1)): 0.2 nM
Kd [1]: 3.82 nM
koff [1]: 0.00069 s⁻¹
kon [1]: 180000 M⁻¹ s⁻¹

B8: SRP2196-A08 (antibody, V domains shown)
VH: B4 VH with A57S, H59Y, Y60K, I74T, K76R, H94Y
VL: B3 VL
notes: His/FLAG-tagged IgG1
Bmax (MFI) (human ROR1 (hROR1)): 13900 MFI
Kd (human ROR1 (hROR1)): 0.2 nM
Kd [1]: 4.26 nM
koff [1]: 0.00078 s⁻¹
kon [1]: 183000 M⁻¹ s⁻¹

B12: SRP2196-A07 (antibody, V domains shown)
VH: B4 VH with Y50Q, A57S, H59Y, I74T, N84S, H94Y, S106G
VL: B3 VL
notes: His/FLAG-tagged IgG1
Bmax (MFI) (human ROR1 (hROR1)): 14100 MFI
Kd (human ROR1 (hROR1)): 0.2 nM
Kd [1]: 3.44 nM
koff [1]: 0.00064 s⁻¹
kon [1]: 186000 M⁻¹ s⁻¹

B13: SRP2196-A05 (antibody, V domains shown)
VH: B4 VH with G31N, H59Y, Y60Q, I74T, H94Y
VL: B3 VL
notes: His/FLAG-tagged IgG1
Bmax (MFI) (human ROR1 (hROR1)): 14800 MFI
Kd (human ROR1 (hROR1)): 0.3 nM
Kd [1]: 3.9 nM
koff [1]: 0.000682 s⁻¹
kon [1]: 175000 M⁻¹ s⁻¹

B14: SRP2196-A04 (antibody, V domains shown)
VH: EVQLVESGGGLVQPGGSLRLSCAASGFNISPYYIHWVRQAPGKGLEWVGQIYPISGHTYQADSVKGRFTISADTSKNTAYLQMNSLRAEDTAVYYCARESRRYVGPFGYWGQGTLVTVSS
VL: B3 VL
notes: His/FLAG-tagged IgG1
Bmax (MFI) (human ROR1 (hROR1)): 14200 MFI
Kd (human ROR1 (hROR1)): 0.1 nM
Kd [1]: 2.46 nM
koff [1]: 0.000343 s⁻¹
kon [1]: 139000 M⁻¹ s⁻¹

B15: SRP2196-A03 (antibody, V domains shown)
VH: B4 VH with G31Q, Y33H, A57S, Y60E, I74T, H94Y, S106G
VL: B3 VL
notes: His/FLAG-tagged IgG1; also called Antibody 150
Bmax (MFI) (human ROR1 (hROR1)): 15400 MFI
Kd (human ROR1 (hROR1)): 0.3 nM
Kd [1]: 1.63 nM
koff [1]: 0.000275 s⁻¹
kon [1]: 169000 M⁻¹ s⁻¹

B20: SRP2196-A11 (antibody, V domains shown)
VH: B4 VH with Y50Q, A57T, H59Y, Y60D, I74T, H94Y, S106G
VL: B3 VL
notes: His/FLAG-tagged IgG1
Bmax (MFI) (human ROR1 (hROR1)): 14000 MFI
Kd (human ROR1 (hROR1)): < 0.05 nM
Kd [1]: 4.16 nM
koff [1]: 0.000792 s⁻¹
kon [1]: 191000 M⁻¹ s⁻¹

Now from value to binder:

Bmax (MFI) (human ROR1 (hROR1)): 15000 MFI
Kd (human ROR1 (hROR1)): 0.4 nM
Kd [1]: 3.23 nM
koff [1]: 0.000461 s⁻¹
kon [1]: 143000 M⁻¹ s⁻¹
B7: SRP2196-C03 (antibody, V domains shown)
VH: B4 VH with Y50Q, A57S, H59Y, Y60S, I74T, N84S, H94Y, R105L
VL: B3 VL
notes: His/FLAG-tagged IgG1

Bmax (MFI) (human ROR1 (hROR1)): 14700 MFI
Kd (human ROR1 (hROR1)): 0.2 nM
Kd [1]: 4.36 nM
koff [1]: 0.000597 s⁻¹
kon [1]: 137000 M⁻¹ s⁻¹
B9: SRP2196-B11 (antibody, V domains shown)
VH: B4 VH with K43R, Y50Q, A57Y, H59Y, I74T, H94Y, V104I
VL: B3 VL
notes: His/FLAG-tagged IgG1

Bmax (MFI) (human ROR1 (hROR1)): 14400 MFI
Kd (human ROR1 (hROR1)): 0.5 nM
Kd [1]: 2.78 nM
koff [1]: 0.000352 s⁻¹
kon [1]: 127000 M⁻¹ s⁻¹
B10: SRP2196-B04 (antibody, V domains shown)
VH: B4 VH with G31E, H59Y, Y60Q, I74T, H94Y, S106G
VL: B3 VL
notes: His/FLAG-tagged IgG1

Bmax (MFI) (human ROR1 (hROR1)): 14900 MFI
Kd (human ROR1 (hROR1)): 0.3 nM
Kd [1]: 1.39 nM
koff [1]: 0.000227 s⁻¹
kon [1]: 163000 M⁻¹ s⁻¹
B11: SRP2196-B02 (antibody, V domains shown)
VH: B4 VH with G31Q, A57Q, H59Y, Y60D, I74T, H94Y
VL: B3 VL
notes: His/FLAG-tagged IgG1

Bmax (MFI) (human ROR1 (hROR1)): 15000 MFI
Kd (human ROR1 (hROR1)): 0.6 nM
Kd [1]: 3.28 nM
koff [1]: 0.000427 s⁻¹
kon [1]: 130000 M⁻¹ s⁻¹
B16: SRP2196-B09 (antibody, V domains shown)
VH: B4 VH with G15E, G31E, A57S, H59Y, I74T, H94Y
VL: B3 VL
notes: His/FLAG-tagged IgG1; also called Antibody 160

Bmax (MFI) (human ROR1 (hROR1)): 15600 MFI
Kd (human ROR1 (hROR1)): 0.6 nM
Kd [1]: 7.64 nM
koff [1]: 0.000945 s⁻¹
kon [1]: 124000 M⁻¹ s⁻¹
B17: SRP2196-B03 (antibody, V domains shown)
VH: B4 VH with V12A, I74T, H94Y, S106P, W107F
VL: B3 VL
notes: His/FLAG-tagged IgG1

Bmax (MFI) (human ROR1 (hROR1)): 15700 MFI
Kd (human ROR1 (hROR1)): 0.3 nM
Kd [1]: 3.66 nM
koff [1]: 0.000457 s⁻¹
kon [1]: 125000 M⁻¹ s⁻¹
B18: SRP2196-C01 (antibody, V domains shown)
VH: B4 VH with T30I, Y50S, S52T, N54L, H59S, Y60K, I74T, H94Y, V104I
VL: B3 VL
notes: His/FLAG-tagged IgG1

Bmax (MFI) (human ROR1 (hROR1)): 15300 MFI
Kd (human ROR1 (hROR1)): 0.6 nM
Kd [1]: 3.02 nM
koff [1]: 0.00036 s⁻¹
kon [1]: 119000 M⁻¹ s⁻¹
B19: SRP2196-C02 (antibody, V domains shown)
VH: B1 VH with Y50F, L54N, A55S, N57W, H60S, T97A, L107F
VL: B3 VL
notes: His/FLAG-tagged IgG1

Bmax (MFI) (human ROR1 (hROR1)): 14700 MFI
Kd (human ROR1 (hROR1)): 0.3 nM
Kd [1]: 2.61 nM
koff [1]: 0.000334 s⁻¹
kon [1]: 128000 M⁻¹ s⁻¹
B21: SRP2196-B10 (antibody, V domains shown)
VH: B4 VH with Y50S, S52T, N54L, H59S, Y60K, I74T, H94Y, V104I
VL: B3 VL
notes: His/FLAG-tagged IgG1; also called Antibody 167

Bmax (MFI) (human ROR1 (hROR1)): 14800 MFI
Kd (human ROR1 (hROR1)): 0.4 nM
Kd [1]: 2.98 nM
koff [1]: 0.000423 s⁻¹
kon [1]: 142000 M⁻¹ s⁻¹
B22: SRP2196-B06 (antibody, V domains shown)
VH: B4 VH with Y50Q, A57S, H59Y, Y60S, I74T, H94Y, R105L
VL: B3 VL
notes: His/FLAG-tagged IgG1
